# Experimental data from the supplement of paper PMC9170038.
# Tested on: MS2 coat protein
# Assay: apparent KD of MS2 coat protein; designed switch direction (-1 OFF switch, 1 ON switch): -1; higher = weaker reporter binding
# Outline: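 An oligonucleotide input, 200 uM small-molecule ligand, or no input was present during titration of SNAP-549-labelled MS2 coat protein, which was doubled from 0.7 or 1.5 nM to 3 µM. Designed RNA switches had been transcribed on Illumina chips by stalled E. coli RNA polymerase. Apparent KD per design is the median over clusters of curves fitted to normalised cluster fluorescence.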
# [1] = Eterna round: R95, input ligand: microRNA oligo, concentration not stated
# [2] = input ligand: microRNA oligo, concentration not stated
# [3] = Eterna round: R95, input ligand: FMN 200 uM
# [4] = Eterna round: R95, input ligand: none
Sequence,apparent KD of MS2 coat protein [1] [nM],apparent KD of MS2 coat protein [2] [nM],apparent KD of MS2 coat protein [3] [nM],apparent KD of MS2 coat protein [4] [nM],apparent KD of MS2 coat protein (input ligand: FMN 200 uM) [nM],apparent KD of MS2 coat protein (input ligand: none) [nM]
AGUGGGCUAGGAUAUCGAUGAACUCACAUGAGGAUCACCCAUGUGUCUUCGGUGGGCUCACGAGAAGGAGUAAGUU [Teanislaa] (puzzle: Exclusion 5),15.7,–,–,–,–,–
"GAGCCAUCGUGAGAUGGCUAACAUACAUGAGGAUCACCCAUGUAGGAUAUCGAUUGCUUUGCAGUCGAGAAGGACAUGUUUAAU [JL ENG3 3.96] (Eterna round: R96, puzzle: Exclusion NG 3)",–,19.1,–,–,–,–
CGUACUCAAGUGAGGAUAUUGUCUCGGAUACGAAACAAGAAGGCACAUGAGGAUCACCCAUGUAGAGAGUACGA [Malc #30 mod 1] (puzzle: Brourd's mod of Exclusion 4),14.5,–,–,–,–,–
GAUUGAGAGCAGGAUAUCAUAGAAAUGUAUGAAUGAGAAGGGCUCACAUGAGGAUCACCCAUGUGGUCCUAGAU [JL Dibiri mod 18] (puzzle: Exclusion 6),21.9,–,–,–,–,–
AGAAAGGAAGGAUAUACAAGAAAGCCGGGCAACGUCUCAGAACAUGAGGAUCACCCAUGUAGAAGGUCCAGGAA [Tisoiste] (puzzle: Exclusion 2),32.6,–,92.3,32.8,–,–
"AGUCAGACGGUAGGAUAUCCAUAUCGAGUGACCCUUUCAUAACAUGAGGAUCACCCAUGUCGGUGGGAGAAGGGCCGUACGGCG [JL ViennaUCT Atra mod 5] (Eterna round: R96, puzzle: Exclusion NG 2)",–,93.3,–,–,226,129
"CCAGCGGACAAAGGAUAUUGCGGUGACCGGCUCGGCGUACCGAGCCUACAUGAGGAUCACCCAUGUAAGAAGGUUGUCGUAGGA [Mat - Exclusion NG 2 - Mod of JL - D73] (Eterna round: R96, puzzle: Exclusion NG 2)",–,13.2,–,–,56.1,19.5
AUAAUUUAAGUGAGGAUAUACCUAUGGAAACAUAGGUAGAAGGCACAUGAGGAUCACCCAUGUUUUUACACAAA [Fiskers BMX 4 - 2] (puzzle: Brourd's mod of Exclusion 4),18.1,–,–,–,–,–
"CAUGAUCUUCGGAUCAUGGACAUGAGGAUCACCCAUGUCACGAGCAGAUCCUCAUGCAAGCUUUUUGCUCGUCUUAU [Sensor v3 - Turn-off variant 1 - 35] (puzzle: Sensor v3, turn-off variant 1)",8.73,–,62.9,85.2,–,–
"UCGCUCCGUGUAGGAUAUCGCCGUUCUAUUCGGCGAGAAGGACAUGAGGAUCACCCAUGUAUGUUAUUAUCACGUGUGGCGCGC [Design 55] (Eterna round: R96, puzzle: Exclusion NG 1)",–,14,–,–,36,20.6
"AGCGUGUUAGGAUAUACACGACACUGGGUAGCGGGUGGAGGGUAGAAGGGACAUGAGGAUCACCCAUGUUCGGG [Ortere] (Eterna round: R97, puzzle: Exclusion 4)",–,–,–,–,28.5,35
"UACAUGAGGAUCACCCAUGUUUUGUCGUGUAUGGUAUUUAUCUAGGAUAUCAUUUUAUUGAGUUAUGAGAAGGAGAAUAUUAAU [JMF's solution 91] (Eterna round: R96, puzzle: Exclusion NG 3)",–,28.5,–,–,39.8,32.3
AAAAGAGUAGGAUAUCUGACGCGAAACAUGAGGAUCACCCAUGUAGGGCGGUCCUGCUUAAGAGAAGGGCUCUAAU [Arorxebile] (puzzle: Exclusion 5),119,–,155,164,–,–
"GGUUGGCGAGGAUAUACAUGAGGAUCACCCAUGUGGUCCUGUGGCUAAAAAAACCUUUGUAGAAGGCGCGGGUC [salish99_ex3_r4_030] (Eterna round: R97, puzzle: Exclusion 3)",–,–,–,–,173,149
GUCAUGUUAGGAUAUCUGGCAUGUGACUUCGGUCACUGUCCAGAGAAGGAACAUGAGGAUCACCCAUGUUGGAC [Ex4-3: 54] (puzzle: Exclusion 4),48.2,–,–,–,–,–
"AUUUUGUCAGGAUAUUAGUAGUAAAUAAAUAAAAUUAUUACUGAGAAGGGACAUGAGGAUCACCCAUGUGUCUU [Salish 062 v9] (Eterna round: R97, puzzle: Exclusion 4)",–,–,–,–,39.5,18.3
"AAUUCACAAGCGAGAUCCCACAUGAGGAUCACCCAUGUGCUCGUCUUAUAAGGUACUGUGACGAGAGUCACGGUACC [Mat - Sensor, turn-off var - Eli Mod - D88] (Eterna round: R97, puzzle: Sensor, turn-off variant 1)",–,–,–,–,15.7,16
"ACAAGCUCUUUGCAUCUUAGUUUUGUUGCUUCGUAUGUAACAUGAGGAUCACCCAUGUAAGACUGAUGUCGUCUUUU [JR_SV3TOV2_Sub087] (puzzle: Sensor v3, turn-off variant 2)",30,–,43.8,48.2,–,–
"UACCGGCGGACCGAGGCUUUUUGCUCGUCUUGUACUACAACAUGAGGAUCACCCAUGUGGUGGUGGUCCGUUGUAGU [JL ViennaUCT Bitein mod 6] (puzzle: Sensor v3, turn-off variant 2)",8.16,–,18.9,25.4,–,–
"GGCAUGUAAGGAUAUGCCACUGAGUGCUUUGCGCUCAGAAAGCAGAAGGUACAUGAGGAUCACCCAUGUGAUAA [jl-ex4-4.53 ViennaUCT mod] (Eterna round: R97, puzzle: Exclusion 4)",–,–,–,–,945,650
"AGGGACGGCUGAGGAUAUAUGUAGAGUGAGAUAGUAGAAGGCAGACAUGAGGAUCACCCAUGUAUCGGUCCUCAUAUCUCGUAU [Default title] (Eterna round: R96, puzzle: Exclusion NG 1)",–,15.9,–,–,14.3,17.7
"CGCAAAACCGUAAGGAUAUCCUUUCCGAAAGGGACGGAGAAGGUACAUGAGGAUCACCCAUGUCCUCCGAGCUG [Eternabot (Original) Solution 18] (Eterna round: R97, puzzle: Brourd's mod of Exclusion 4)",–,–,–,–,20.6,18
GGUUGGCGAGGAUAUACAUGAGGAUCACCCAUGUGAGAAAAUAAGUGAGGAAAGAAAAGUAGAAGGCGCUGACG [Mat - Exclusion 3 - Mod of Salish D53] (puzzle: Exclusion 3),55.8,–,570,37.1,–,–
"CAAAGUUGGUAAGGAUAUCCUACAUUAUUCUGACCCGUGCAAGCUACAUGAGGAUCACCCAUGUGGGAGAAGGUGCGUUAAAGU [Design 3] (Eterna round: R96, puzzle: Exclusion NG 2)",–,17.4,–,–,23.4,21.7
"AGCAUGCAGCAGGAUAUCGAUCCGCAGUAUGAUCGAGAAGGGCUGACAUGAGGAUCACCCAUGUGCGUCCUAGG [jl-ex6-4.42 ViennaUCT mod] (Eterna round: R97, puzzle: Exclusion 6)",–,–,–,–,295,66.3
